From patent US20230002480A1

Tests used:
Assay in all cases: cell-based or functional assay
[1] = target: HIV-1 Env of pseudovirus 0260.v5.c36 (HIV-1)
[2] = target: HIV-1 Env of pseudovirus 1012_11_TC21_3257 (HIV-1)
[3] = target: HIV-1 Env of pseudovirus 1056_10_TA11_1826 (HIV-1)
[4] = target: HIV-1 Env of pseudovirus 928-28 (HIV-1)
[5] = target: HIV-1 Env of pseudovirus BJOX015000.11.5 (HIV-1)
[6] = target: HIV-1 Env of pseudovirus BJOX028000.10.3 (HIV-1)
[7] = target: HIV-1 Env of pseudovirus CAAN5342.A2 (HIV-1)
[8] = target: HIV-1 Env of pseudovirus CAP210.2.00.E8 (HIV-1)
[9] = target: HIV-1 Env of pseudovirus CNE20 (HIV-1)
[10] = target: HIV-1 Env of pseudovirus CNE53 (HIV-1)
[11] = target: HIV-1 Env of pseudovirus CNE8 (HIV-1)
[12] = target: HIV-1 Env of pseudovirus Ce0393_C3 (HIV-1)
[13] = target: HIV-1 Env of pseudovirus Ce0682_E4 (HIV-1)
[14] = target: HIV-1 Env of pseudovirus Ce1176_A3 (HIV-1)
[15] = target: HIV-1 Env of pseudovirus Ce2010_F5 (HIV-1)
[16] = target: HIV-1 Env of pseudovirus Ce703010054_2A2 (HIV-1)
[17] = target: HIV-1 Env of pseudovirus Du156.12 (HIV-1)
[18] = target: HIV-1 Env of pseudovirus Du422.1 (HIV-1)
[19] = target: HIV-1 Env of pseudovirus HIV-001428-2.42 (HIV-1)
[20] = target: HIV-1 Env of pseudovirus Q461.e2 (HIV-1)
[21] = target: HIV-1 Env of pseudovirus Q842.d12 (HIV-1)
[22] = target: HIV-1 Env of pseudovirus R2184.c04 (HIV-1)
[23] = target: HIV-1 Env of pseudovirus T251-18 (HIV-1)
[24] = target: HIV-1 Env of pseudovirus T278-50 (HIV-1)
[25] = target: HIV-1 Env of pseudovirus X1193_c1 (HIV-1)
[26] = target: HIV-1 Env of pseudovirus X1254_c3 (HIV-1)
[27] = target: HIV-1 Env of pseudovirus ZM109F.PB4 (HIV-1)
[28] = target: HIV-1 Env of pseudovirus ZM214M.PL15 (HIV-1)
[29] = target: HIV-1 Env of pseudovirus ZM233M.PB6 (HIV-1)
[30] = target: HIV-1 Env of pseudovirus ZM249M.PL1 (HIV-1)
[31] = target: HIV-1 Env of pseudovirus ZM53M.PB12 (HIV-1)
[32] = target: HIV-1 Env of pseudovirus 231966.c02 (HIV-1)
[33] = target: HIV-1 Env of pseudovirus 6540.v4.c1 (HIV-1)
[34] = target: HIV-1 Env of pseudovirus 6811.v7.c18 (HIV-1)
[35] = target: HIV-1 Env of pseudovirus P1981_C5_3 (HIV-1)

N49P7.1 (antibody) showed a neutralization IC50 [1] of 0.497 µg/mL, a neutralization IC80 [1] of 1.51 µg/mL and a neutralization MPI [1] of 100. The neutralization IC50 [2] was 0.063 µg/mL, the neutralization IC80 [2] was 0.176 µg/mL and the neutralization MPI [2] was 100. For the same substance, the neutralization IC50 [3] was 0.171 µg/mL, the neutralization IC80 [3] was 0.603 µg/mL and the neutralization MPI [3] was 100. It also gave a neutralization IC50 [4] of 0.23 µg/mL, a neutralization IC80 [4] of 0.775 µg/mL and a neutralization MPI [4] of 100. For the same substance, the neutralization IC50 [5] was 0.111 µg/mL, the neutralization IC80 [5] was 0.487 µg/mL and the neutralization MPI [5] was 100. It also gave a neutralization IC50 [6] of 0.031 µg/mL, a neutralization IC80 [6] of 0.29 µg/mL and a neutralization MPI [6] of 100. The neutralization IC50 [7] was 0.55 µg/mL, the neutralization IC80 [7] was 1.59 µg/mL and the neutralization MPI [7] was 100. It also gave a neutralization IC50 [8] of 2.03 µg/mL, a neutralization IC80 [8] of 7.3 µg/mL and a neutralization MPI [8] of 99. For the same substance, the neutralization IC50 [9] was 0.079 µg/mL, the neutralization IC80 [9] was 0.224 µg/mL and the neutralization MPI [9] was 100. The neutralization IC50 [10] was 0.066 µg/mL, the neutralization IC80 [10] was 0.228 µg/mL and the neutralization MPI [10] was 100. The neutralization IC50 [11] was 0.048 µg/mL, the neutralization IC80 [11] was 0.167 µg/mL and the neutralization MPI [11] was 100. It also gave a neutralization IC50 [12] of 0.23 µg/mL, a neutralization IC80 [12] of 1.02 µg/mL and a neutralization MPI [12] of 100. It also gave a neutralization IC50 [13] of 0.026 µg/mL, a neutralization IC80 [13] of 0.099 µg/mL and a neutralization MPI [13] of 100. The neutralization IC50 [14] was 0.279 µg/mL, the neutralization IC80 [14] was 1.01 µg/mL and the neutralization MPI [14] was 100. It also gave a neutralization IC50 [15] of 0.055 µg/mL, a neutralization IC80 [15] of 0.208 µg/mL and a neutralization MPI [15] of 100. For the same substance, the neutralization IC50 [16] was 0.085 µg/mL, the neutralization IC80 [16] was 0.364 µg/mL and the neutralization MPI [16] was 100. For the same substance, the neutralization IC50 [17] was 0.045 µg/mL, the neutralization IC80 [17] was 0.131 µg/mL and the neutralization MPI [17] was 100. The neutralization IC50 [18] was 3.76 µg/mL, the neutralization IC80 [18] was 15.7 µg/mL and the neutralization MPI [18] was 93. For the same substance, the neutralization IC50 [19] was 9 ng/mL, the neutralization IC80 [19] was 0.029 µg/mL and the neutralization MPI [19] was 100. The neutralization IC50 [20] was 0.329 µg/mL, the neutralization IC80 [20] was 1.14 µg/mL and the neutralization MPI [20] was 100. For the same substance, the neutralization IC50 [21] was 0.028 µg/mL, the neutralization IC80 [21] was 0.08 µg/mL and the neutralization MPI [21] was 100. It also gave a neutralization IC50 [22] of 0.018 µg/mL, a neutralization IC80 [22] of 0.04 µg/mL and a neutralization MPI [22] of 100. The neutralization IC50 [23] was 0.229 µg/mL, the neutralization IC80 [23] was 0.794 µg/mL and the neutralization MPI [23] was 100. For the same substance, the neutralization IC50 [24] was 42.4 µg/mL, the neutralization IC80 [24] was greater than 50 µg/mL and the neutralization MPI [24] was 56. It also gave a neutralization IC50 [25] of 0.035 µg/mL, a neutralization IC80 [25] of 0.144 µg/mL and a neutralization MPI [25] of 100. It also gave a neutralization IC50 [26] of 3.96 µg/mL, a neutralization IC80 [26] of 18.2 µg/mL and a neutralization MPI [26] of 96. It also gave a neutralization IC50 [27] of 0.055 µg/mL, a neutralization IC80 [27] of 0.199 µg/mL and a neutralization MPI [27] of 100. The neutralization IC50 [28] was 0.257 µg/mL, the neutralization IC80 [28] was 0.853 µg/mL and the neutralization MPI [28] was 100. It also gave a neutralization IC50 [29] of 0.355 µg/mL, a neutralization IC80 [29] of 1.25 µg/mL and a neutralization MPI [29] of 100. For the same substance, the neutralization IC50 [30] was 0.071 µg/mL, the neutralization IC80 [30] was 0.239 µg/mL and the neutralization MPI [30] was 100. It also gave a neutralization IC50 [31] of 0.287 µg/mL, a neutralization IC80 [31] of 1 µg/mL and a neutralization MPI [31] of 100.

For N49P11 (antibody), the IC50 [1] was 0.438 µg/mL, the IC80 [1] was 1.47 µg/mL and the MPI [1] was 100. The IC50 [32] was 4.31 µg/mL, the IC80 [32] was 16 µg/mL and the MPI [32] was 100. The IC50 [33] was 3.05 µg/mL, the IC80 [33] was 16.3 µg/mL and the MPI [33] was 100. The IC50 [34] was 3.68 µg/mL, the IC80 [34] was 14.6 µg/mL and the MPI [34] was 100. The IC50 [4] was 5.46 µg/mL, the IC80 [4] was 25 µg/mL and the MPI [4] was 100. It also gave an IC50 [5] of 0.288 µg/mL, an IC80 [5] of 1.28 µg/mL and an MPI [5] of 100. It also gave an IC50 [6] of 5.33 µg/mL, an IC80 [6] of 46.7 µg/mL and an MPI [6] of 100. The IC50 [11] was 0.165 µg/mL, the IC80 [11] was 1.24 µg/mL and the MPI [11] was 100. It also gave an IC50 [35] of 5.29 µg/mL, an IC80 [35] of 16.5 µg/mL and an MPI [35] of 100. The IC50 [22] was 0.034 µg/mL, the IC80 [22] was 0.12 µg/mL and the MPI [22] was 100. The IC50 [23] was 3.05 µg/mL, the IC80 [23] was 16.7 µg/mL and the MPI [23] was 100. It also gave an IC50 [24] of 7.63 µg/mL, an IC80 [24] of 25.1 µg/mL and an MPI [24] of 100. The IC50 [25] was 0.179 µg/mL, the IC80 [25] was 1.09 µg/mL and the MPI [25] was 100. It also gave an IC50 [26] of 5.99 µg/mL, an IC80 [26] of 20.7 µg/mL and an MPI [26] of 100.
